Laboratory results taken from patent US20090203886A1 (OSAKA UNIVERSITY, published 2009).
Residue numbers refer to the chain shown, from its start.

T1: human CD20 antigen (human, UniProt P11836 1-297)
T1 sequence (looked up): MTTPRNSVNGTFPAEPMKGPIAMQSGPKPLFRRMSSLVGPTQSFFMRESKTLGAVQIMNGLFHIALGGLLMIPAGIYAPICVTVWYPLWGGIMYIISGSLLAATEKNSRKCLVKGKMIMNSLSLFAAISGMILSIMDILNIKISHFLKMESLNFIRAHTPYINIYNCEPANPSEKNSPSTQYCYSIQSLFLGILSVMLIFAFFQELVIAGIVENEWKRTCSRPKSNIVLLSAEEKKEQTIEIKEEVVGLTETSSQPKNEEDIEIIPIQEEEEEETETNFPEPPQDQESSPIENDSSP

B1: 1K1228 murine anti CD20 monoclonal antibody (antibody, mouse IgG1, V domains shown)
VH: QVQLQQPGAELVKPGASVKVSCKASGFTFTSYNLHWVKQTPGQGLVWIGAIYPGNGDTSYNQKFRGKATLTADISSSTAYMQLSSLTSEDSAVYYCARYYYGYDAMDYWGQGTSVTVSS
VL: EIILTQSPTTMAASPGEKITITCSASSSISSYYLRWYQQKPGFSPKVLIYRTSNLASGVPARFSGSGSGTSYSLTIGTMEAEDVATYYCQQGNTVPLTFGSGTKLEIK
notes: also called m1228
B2: 1K1422 murine anti CD20 monoclonal antibody (antibody, V domains shown)
VH: QVQLQQPGAELVKPGASVKMSCRASGYTFTNYNMHWIKQTPGQGLEWIGAIYPGSGDTSYNRKFKGKATLTADTSSSTAYMQFSSLTSADSAVYYCARFTYYYGGTYGAMDYWGQGTSVTVSL
VL: QIVLTQSPPIMSASLGEEITLTCSASSRVSYMLWYQQKSGTSPKLLIYSTSNLASGVPSRFSGSGSGTFYSLTISSVEAEDAADYYCHQWTSNPCTFGGGTKLEIK
notes: also called m1422
B3: 1K1782 murine anti CD20 monoclonal antibody (antibody, V domains shown)
VH: QVQLQQSGAELAKPGASVKMSCKASGYTFTSYWMHWVKQRPGQGLEWIGYITPSTGYTDYNKKFKDKATLTADRSSSTAYMHLSSLTSEDSAVYYCARSGPYFDVWGAGTTVTVSS
VL: DILLTQSPAILFVSPGERVSLSCRASQNIGTSIHWYQQRTNGSPRLLIKYASESFSGIPSRFSGSGSGTDFTLSINSVESEDIADYYCQQSNSWPFTFGSGTKLEIK
notes: also called m1782
B4: 1K1712 murine anti CD20 monoclonal antibody (antibody, V domains shown)
VH: QVQLQQPGAELVKPGASVKMSCKASGFTFTSYNLHWVKQTPGQGLEWIGAIYPGSGDTSYNQQFKGKATLTADKSSNTAYMQLNSLTSEDSAVYCCARSAMISTGNWYFDYWGQGTTLTVSS
VL: QIVLSQSPAILSASPGEKVTMTCRASSSVSYMDWYQQKPGSSPKPWIYATSNLASGVPARFSGSGSGTSYSLTISRVEAEDTATYYCQQWTFNPPTFGSGTKLEIK
notes: also called m1712
B5: 1K1402 murine anti CD20 monoclonal antibody (antibody, V domains shown)
VH: QVQLQQPGAELVKPGASVKMSCKASGFTFTSYNMHWVKQTPGQGLEWIGGIYPGNGDTSYNQKFKGKATLTADKSSSTAYMQLSSLTSEDSAVYYCARFYYYGSMGAMDYWGQGTSVTVSS
VL: B4 VL with D33H, S75T, T82A, S99A, I105L
notes: also called m1402
B6: 1K1736 murine anti CD20 monoclonal antibody (antibody, V domains shown)
VH: QVQLQQPGAELVKPGASVKMSCKASGYTFTTYNLHWVKQTPGQGLEWIGGIYPGNGDTSYNQKFKVKATLTADKSSNTAYMQLSSLTSEDSAVYYCARWIYYGNYEGTLDYWGQGTSVTVSS
VL: B4 VL with A13S, D33L, K44E, S64G, T82A, S99G
B7: 1K1791 murine anti CD20 monoclonal antibody (antibody, V domains shown)
VH: QIQLVQSGPELKKPGETVKISCKASGYTFTNFGVNWVKQAPGKGLKWMGWINTYTGEPSYADDFKGRFAFSLEASANTAYLQINNLKNDDMSTYFCTRRTNYYGTSYYYAMDYWGQGTSVTVSS
VL: STVMTQTPKFLLVSAGDRVTITCKASQSVSNDVAWYQQKPGQSPKVLIYFASNRYTGVPDRFTGSGYGTDFTFTINTVQAEDLAVYFCQQDYSSPLTFGAGTKLELK
notes: also called m1791

Tests used:
human CD20 antigen [1] = molecular target: T1, human CD20 antigen; assay: Scatchard analysis on Raji cells, FITC secondary antibody fluorescence (Example 2)
Method: The mixture was shaken for one hour at room temperature while shielding against light and primary antibodies binding to cells were detected. After the reaction, the mixture was centrifuged at 3,000 rpm for three minutes and the cells were recovered. The cells were suspended in 200 μl of PBS to remove unreacted FITC-labeled anti murine IgG (H&L) antibody remaining on the cell surface and then centrifuged at 3,000 rpm for three minutes to remove the supernatant. This operation was repeated twice.
After the detection step, the image was digitized using image analysis software Image Quant (Amersham Bioscience) and analyzed using Excel (Microsoft). Background values for the plate, the PBS solution and FITC-labeled secondary antibody displaying non-specific binding to cells were determined. Then a value for the reaction only between the cells and the FITC-labeled secondary antibodies was obtained. Average values for those four points were subtracted from the fluorescent intensity value for each sample in order to obtain the amount of fluorescence of cell-conjugated FITC-labeled secondary antibody. A standard curve was prepared by measuring the amount of fluorescence at various concentrations of control cell-conjugated FITC-labeled secondary antibodies. Thus the amount of cell-conjugated secondary antibody (number of moles or weight) was calculated. The amount of cell-conjugated primary antibody was calculated assuming that each primary antibody and the FITC-labeled secondary antibody react at a ratio of 1:2. Primary antibody in suspension was calculated by subtracting the cell-conjugated amount from the added amount. When calculating the antibody concentration as a molar concentration, the molecular weight of the monoclonal was taken to be 150,000.
Scatchard analysis was used to calculate the antigen number and dissociation constant (Kd value) refer to Scatchard, G.; Ann. N.Y. Acad.

human CD20 antigen [2] = molecular target: T1, human CD20 antigen; assay: cell-based or functional assay
human CD20 antigen [3] = molecular target: T1, human CD20 antigen; assay: cell-based or functional assay; remark: listed apart in the source
human CD20 antigen [4] = molecular target: T1, human CD20 antigen; assay: cell-based or functional assay; remark: listed apart in the source

Molecule	Kd (human CD20 antigen [1])	Cell growth inhibiting test on Raji cells, Absorption (492 nm) (absorbance 492 nm) (human CD20 antigen [2])	Capacity to Induce Apoptosis (Raji cells) (human CD20 antigen [3])	Cell growth inhibiting test on Raji cells, Absorption (492 nm) (human CD20 antigen [4])
2B8 murine anti CD20 antibody (positive control)	6.79 nM	1.76		
B1	0.26 nM		30	
B2	3.39 nM		130	1.77 absorbance 492 nm
B3	0.4 nM		30	2.6 absorbance 492 nm
B4	0.84 nM		50	2.33 absorbance 492 nm
B5	0.78 nM		30	2.54 absorbance 492 nm
B6	0.54 nM		50	2.24 absorbance 492 nm
B7	1.7 nM		160	1.79 absorbance 492 nm
